± gives the standard deviation of the averaged measurements.
Tested on: ATP
Test: switch fluorescence ratio, 500 uM ATP over buffer (Cy3 cluster intensity, sum of 5 cycles each) (fold (ratio)); higher = stronger signal-on switching upon ATP binding; sequences stand for … in TCGTCGGCAGCGTCAGATGTGTATAAGAGACAGTTTTTTTTTTTTTTTTTTTTTTTTT…TC
Conditions: aptamer strand: ATP DNA aptamer (quencher-CACCTGGGGGAGTATTGCGGAGGAAGG + anchor), 100 nM annealed; ATP concentration: 500 uM
Outline: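 Exposure to 500 uM ATP lasted 15 min at 22 °C before imaging, and a selection-buffer image was taken beforehand, for Cy3-labelled switching-strand clusters on a modified Illumina MiSeq flow-cell annealed to 100 nM quencher-labelled ATP aptamer. Five buffer/ATP cycles were run with NaOH stripping and re-annealing between them. The fluorescence ratio per cluster is summed target-cycle over summed buffer-cycle Cy3 intensity, averaged per switch-domain sequence. Clusters outside 100-1000 RFU were excluded.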

With TCGGCGAAAA the switch fluorescence ratio was 1.84 ± 1.1.
CATTCACATT showed a switch fluorescence ratio of 1.05 ± 0.034.
In the case of ATGGGACCGT, the switch fluorescence ratio is reported as 1.01 ± 0.056.
Work on TTCTCGGACG yielded a switch fluorescence ratio of 0.991 ± 0.017.
GGGTAGGCGC gave a switch fluorescence ratio of 1.04 ± 0.029.
TGGGGTATAA was tested, and the switch fluorescence ratio was 1.001 ± 0.0042.
GACGGTAGTT showed a switch fluorescence ratio of 1.01 ± 0.047.
Work on ACAAAGGTGT yielded a switch fluorescence ratio of 1.29 ± 0.015.
In the case of GCTTAAGGCT, the switch fluorescence ratio is reported as 1 ± 0.022.
TCGGGACGTT showed a switch fluorescence ratio of 1.02 ± 0.044.
AATCAGATCG showed a switch fluorescence ratio of 0.962 ± 0.018.
AAAGGATATC was tested, and the switch fluorescence ratio was 1.036 ± 0.0028.
GATCTTATTC showed a switch fluorescence ratio of 0.98506 ± 0.00068.
For CGTGCTGGCA, the switch fluorescence ratio was 1.019 ± 0.0064.
TTCCTATGTT gave a switch fluorescence ratio of 0.991 ± 0.056.
Work on GAAGTAGGTG yielded a switch fluorescence ratio of 1.02 ± 0.012.
Work on TTGCATTTGG yielded a switch fluorescence ratio of 1.01 ± 0.088.
With TAAAGGGGCG the switch fluorescence ratio was 1.01 ± 0.031.
Work on GCGGGTCAGC yielded a switch fluorescence ratio of 1.01 ± 0.012.
For TGCTCGGTTT, the switch fluorescence ratio was 0.998 ± 0.045.
TTGAAATTGG showed a switch fluorescence ratio of 0.99 ± 0.031.
GATTCATCTA gave a switch fluorescence ratio of 0.983 ± 0.029.
AAAGGTCCGC gave a switch fluorescence ratio of 1.18 ± 0.051.
For TCACTTATGG, the switch fluorescence ratio was 1.03 ± 0.033.
For TGACCCGGGT, the switch fluorescence ratio was 1.018 ± 0.0072.
For GTATTCGTTT, the switch fluorescence ratio was 1 ± 0.028.
For TTAGGAGGTG, the switch fluorescence ratio was 1.08 ± 0.018.
ATAGTCCCAC was tested, and the switch fluorescence ratio was 0.9901 ± 0.009.
GGTGAAAAAG was tested, and the switch fluorescence ratio was 1.01 ± 0.011.
TTTGCCGAGG was tested, and the switch fluorescence ratio was 1.01 ± 0.015.
Sequence ATGGTAAACC has a switch fluorescence ratio of 1.16 ± 0.066.
ATTGAATTCG was tested, and the switch fluorescence ratio was 1 ± 0.011.
GAAGTTGGGT was tested, and the switch fluorescence ratio was 1.01 ± 0.029.
With CGTTCACCGG the switch fluorescence ratio was 0.959 ± 0.049.
CCAGGGCGAA showed a switch fluorescence ratio of 1.064 ± 0.0056.
Sequence ATTAGGAGAC has a switch fluorescence ratio of 1.005 ± 0.008.
Work on AACGGGTCTA yielded a switch fluorescence ratio of 1.01 ± 0.035.
TTCAGGATTT gave a switch fluorescence ratio of 0.994 ± 0.038.
In the case of GAAATGAGAT, the switch fluorescence ratio is reported as 0.975 ± 0.01.
AAGTTGGGCC gave a switch fluorescence ratio of 0.955 ± 0.044.
Work on AAGGTCATTA yielded a switch fluorescence ratio of 0.97235 ± 0.00041.
Work on GGGAAGAATA yielded a switch fluorescence ratio of 0.986 ± 0.018.
In the case of AGCGTTTCGC, the switch fluorescence ratio is reported as 0.996 ± 0.013.
For CGGCCTGATA, the switch fluorescence ratio was 1.01 ± 0.028.
TCAGTTGTCA showed a switch fluorescence ratio of 0.981 ± 0.017.
With TTTGATTGGA the switch fluorescence ratio was 1.02 ± 0.011.
With ATGCGCTGGG the switch fluorescence ratio was 1.01 ± 0.021.
Work on TACTGATCGT yielded a switch fluorescence ratio of 1.04 ± 0.024.
Sequence TAGCTGGCTG has a switch fluorescence ratio of 0.986 ± 0.043.
TCTGGTGTGG was tested, and the switch fluorescence ratio was 0.994 ± 0.053.
Work on CTGGGGGGGT yielded a switch fluorescence ratio of 0.994 ± 0.036.
TTAAGGCTTT was tested, and the switch fluorescence ratio was 0.984 ± 0.025.
GGTGGGTGTA gave a switch fluorescence ratio of 0.957 ± 0.051.
Sequence TTGCCTGTAT has a switch fluorescence ratio of 0.9731 ± 0.0073.
In the case of GGTAAATGGG, the switch fluorescence ratio is reported as 0.957 ± 0.011.
For GTTAGAAGGG, the switch fluorescence ratio was 0.978 ± 0.023.
GCGAACGCGC showed a switch fluorescence ratio of 1.27 ± 0.011.
TTAATCTTTC gave a switch fluorescence ratio of 1.09 ± 0.05.
GGGTACCGAA was tested, and the switch fluorescence ratio was 0.981 ± 0.027.
TATAGTTCGG gave a switch fluorescence ratio of 1.01 ± 0.013.
In the case of CTTATGATTT, the switch fluorescence ratio is reported as 0.998 ± 0.033.
AAGGGGCGAT showed a switch fluorescence ratio of 0.98751 ± 0.00098.
Sequence CAGATGGTCG has a switch fluorescence ratio of 0.938 ± 0.057.
GGGGGTATAT gave a switch fluorescence ratio of 1.03 ± 0.019.
GATTACCAAG was tested, and the switch fluorescence ratio was 1.03 ± 0.025.
Work on TTTCGCGGTC yielded a switch fluorescence ratio of 1.9 ± 1.1.
TTGCTCGAAA showed a switch fluorescence ratio of 0.987 ± 0.075.
TCTTTGGTTT showed a switch fluorescence ratio of 1.17 ± 0.25.
Work on TGAACTAGTA yielded a switch fluorescence ratio of 0.9828 ± 0.0046.
CTGAGTGCGG showed a switch fluorescence ratio of 1.02 ± 0.023.
Sequence ACGCAGGACA has a switch fluorescence ratio of 1.35 ± 0.031.
ACGGACAATC was tested, and the switch fluorescence ratio was 1.47 ± 0.099.
CTGGGGGGAG was tested, and the switch fluorescence ratio was 1.01 ± 0.024.
Work on TTTTAAGTTG yielded a switch fluorescence ratio of 1.01 ± 0.045.
TTGTGTTTAG showed a switch fluorescence ratio of 1.016 ± 0.0044.
With AGTGGTGAGG the switch fluorescence ratio was 0.983 ± 0.016.
Work on GCAAGAGATG yielded a switch fluorescence ratio of 1.01 ± 0.027.
GTGTCCCTC showed a switch fluorescence ratio of 1.01 ± 0.04.
In the case of ATGCGCTCGA, the switch fluorescence ratio is reported as 1.02 ± 0.053.
AATTCGTGCG showed a switch fluorescence ratio of 0.9872 ± 0.0086.
For TACGTGGGGC, the switch fluorescence ratio was 1.01 ± 0.0079.
Work on CCTTAAAAAA yielded a switch fluorescence ratio of 1.04 ± 0.014.
TTGTGTCTTT was tested, and the switch fluorescence ratio was 0.986 ± 0.017.
Sequence TAATTTATCA has a switch fluorescence ratio of 1.01 ± 0.035.
TTGGTGGAAT was tested, and the switch fluorescence ratio was 1.06 ± 0.093.
Work on TCAGAAAGGG yielded a switch fluorescence ratio of 1.021 ± 0.0059.
CGACAATGTA was tested, and the switch fluorescence ratio was 1.17 ± 0.018.
ATGTATTACT gave a switch fluorescence ratio of 1.03 ± 0.033.
For GCCGTATGCG, the switch fluorescence ratio was 0.992 ± 0.019.
In the case of GACAGAGCCA, the switch fluorescence ratio is reported as 1.1036 ± 0.0011.
GGGTTGGCGT was tested, and the switch fluorescence ratio was 0.956 ± 0.012.
GTTGGGCCCA was tested, and the switch fluorescence ratio was 1 ± 0.016.
Sequence ATGGGATGGG has a switch fluorescence ratio of 1 ± 0.025.
In the case of ATAGATGGCC, the switch fluorescence ratio is reported as 0.95 ± 0.056.
Sequence GTTTTACGCG has a switch fluorescence ratio of 1 ± 0.007.
GGTCCGGGGG gave a switch fluorescence ratio of 1.02 ± 0.025.
In the case of TGACTGGACG, the switch fluorescence ratio is reported as 1 ± 0.028.
GAAGGCGGGA showed a switch fluorescence ratio of 1.03 ± 0.097.
Sequence TCTTTCTTTT has a switch fluorescence ratio of 1.03 ± 0.027.
With GCATTCTCGT the switch fluorescence ratio was 1.029 ± 0.0021.
Sequence GGGTGTTTAG has a switch fluorescence ratio of 1.01 ± 0.027.
Sequence AATGAAAGGT has a switch fluorescence ratio of 1.01 ± 0.022.
In the case of ACGATTAGGG, the switch fluorescence ratio is reported as 0.996 ± 0.08.
CCTTAGTGAC was tested, and the switch fluorescence ratio was 1.36 ± 0.069.
CATACTTTGG showed a switch fluorescence ratio of 1.01 ± 0.016.
AAATTTTTCT showed a switch fluorescence ratio of 1.05 ± 0.07.
For TTTACGGTGA, the switch fluorescence ratio was 1.02 ± 0.043.
Work on TGGAGAAAGG yielded a switch fluorescence ratio of 1.13 ± 0.29.
Work on CACTTTCGT yielded a switch fluorescence ratio of 0.959 ± 0.029.
Sequence CCATGTGGG has a switch fluorescence ratio of 1.02 ± 0.013.
In the case of GACGGTTGCG, the switch fluorescence ratio is reported as 0.977 ± 0.054.
For CGTGTTAATT, the switch fluorescence ratio was 0.982 ± 0.034.
For GGATGCTCGG, the switch fluorescence ratio was 0.966 ± 0.015.
With CGGGGGGCTG the switch fluorescence ratio was 0.995 ± 0.04.
TTCCAATTTG showed a switch fluorescence ratio of 1 ± 0.014.
In the case of ATATATGGTG, the switch fluorescence ratio is reported as 1.05 ± 0.02.
TGGGGGTCTG showed a switch fluorescence ratio of 1.01 ± 0.045.
With ATGGGACGAT the switch fluorescence ratio was 0.995 ± 0.026.
GATTGTAGCT was tested, and the switch fluorescence ratio was 0.987 ± 0.023.
In the case of GTGTGTGTAA, the switch fluorescence ratio is reported as 1.01 ± 0.045.
TTGGTCGCTG showed a switch fluorescence ratio of 1.01 ± 0.011.
CATGGTATTA was tested, and the switch fluorescence ratio was 1.01 ± 0.044.
In the case of AGTAGTGTTG, the switch fluorescence ratio is reported as 1.01 ± 0.068.
Work on CGCGGGGAGC yielded a switch fluorescence ratio of 1.07 ± 0.088.
For GAATTTGTGA, the switch fluorescence ratio was 0.98 ± 0.035.
TTTCAAGTGG showed a switch fluorescence ratio of 1.014 ± 0.0096.
With GCTCGGAGGA the switch fluorescence ratio was 1 ± 0.025.
Work on TAGGTCGGGA yielded a switch fluorescence ratio of 0.976 ± 0.02.
AACTGGTTG gave a switch fluorescence ratio of 0.9804 ± 0.009.
GCTATCTGCT was tested, and the switch fluorescence ratio was 0.976 ± 0.06.
In the case of TCGGGGGGCG, the switch fluorescence ratio is reported as 0.977 ± 0.034.
In the case of AAACTTATAA, the switch fluorescence ratio is reported as 0.991 ± 0.029.
In the case of TTATCAGGGG, the switch fluorescence ratio is reported as 1.08 ± 0.12.
TATGGGGGGA was tested, and the switch fluorescence ratio was 1.02 ± 0.046.
TCCGGCGTAT showed a switch fluorescence ratio of 1.131 ± 0.0055.
For GGGGGCCACG, the switch fluorescence ratio was 0.984 ± 0.022.
In the case of CTTCAGGAAG, the switch fluorescence ratio is reported as 0.9946 ± 0.0021.
GAGACACATA was tested, and the switch fluorescence ratio was 1.09 ± 0.013.
Work on TGGCGATTGT yielded a switch fluorescence ratio of 0.986 ± 0.014.
TGGCTGGGTA gave a switch fluorescence ratio of 0.983 ± 0.043.
For TAACGTATGG, the switch fluorescence ratio was 1.03 ± 0.021.
Work on AGGTATTTGA yielded a switch fluorescence ratio of 0.984 ± 0.054.
Work on TCAAGATGTG yielded a switch fluorescence ratio of 0.99 ± 0.036.
For AGGGTAATTG, the switch fluorescence ratio was 0.998 ± 0.036.
In the case of TCAGAATCTA, the switch fluorescence ratio is reported as 1 ± 0.015.
TCATATGAGT showed a switch fluorescence ratio of 1 ± 0.051.
Sequence TTACGAACCG has a switch fluorescence ratio of 1.23 ± 0.026.
Sequence AAAACGGAAC has a switch fluorescence ratio of 1.05 ± 0.028.
Sequence ATAGCTACGC has a switch fluorescence ratio of 1.035 ± 0.003.
GATTGTGGGG was tested, and the switch fluorescence ratio was 0.969 ± 0.015.
CTAGGTTGAG showed a switch fluorescence ratio of 0.983 ± 0.019.
ACTTGATAGG showed a switch fluorescence ratio of 1.03 ± 0.041.
Sequence GAAATCTTTT has a switch fluorescence ratio of 1.07 ± 0.17.
With TGGTTGTTGC the switch fluorescence ratio was 0.998 ± 0.043.
In the case of CATTTTTGTA, the switch fluorescence ratio is reported as 0.986 ± 0.012.
CTTAGGGTAG gave a switch fluorescence ratio of 1.01 ± 0.019.
For GACTAAATGC, the switch fluorescence ratio was 1.8 ± 0.3.

Reference: the supplement of paper PMC10126150
